B1: Histone-lysine N-methyltransferase SETD7 (Homo sapiens), Q8WTS6 (parent)
chain: MDSDDEMVEEAVEGHLDDDGLPHGFCTVTYSSTDRFEGNFVHGEKNGRGKFFFFDGSTLEGYYVDDALQGQGVYTYEDGGVLQGTYVDGELNGPAQEYDTDGRLIFKGQYKDNIRHGVCWIYYPDGGSLVGEVNEDGEMTGEKIAYVYPDERTALYGKFIDGEMIEGKLATLMSTEEGRPHFELMPGNSVYHFDKSTSSCISTNALLPDPYESERVYVAESLISSAGEGLFSKVAVGPNTVMSFYNGVRITHQEVDSRDWALNGNTLSLDEETVIDVPEPYNHVSKYCASLGHKANHSFTPNCIYDMFVHPRFGPIKCIRTLRAVEADEELTVAYGYDHSPPGKSGPEAPEWYQVELKAFQATQQK

Variants of: B1
Conditions: with sir1_human SIRT1, Q96EB6
Sequence of sir1_human SIRT1, Q96EB6 (Q96EB6 whole entry): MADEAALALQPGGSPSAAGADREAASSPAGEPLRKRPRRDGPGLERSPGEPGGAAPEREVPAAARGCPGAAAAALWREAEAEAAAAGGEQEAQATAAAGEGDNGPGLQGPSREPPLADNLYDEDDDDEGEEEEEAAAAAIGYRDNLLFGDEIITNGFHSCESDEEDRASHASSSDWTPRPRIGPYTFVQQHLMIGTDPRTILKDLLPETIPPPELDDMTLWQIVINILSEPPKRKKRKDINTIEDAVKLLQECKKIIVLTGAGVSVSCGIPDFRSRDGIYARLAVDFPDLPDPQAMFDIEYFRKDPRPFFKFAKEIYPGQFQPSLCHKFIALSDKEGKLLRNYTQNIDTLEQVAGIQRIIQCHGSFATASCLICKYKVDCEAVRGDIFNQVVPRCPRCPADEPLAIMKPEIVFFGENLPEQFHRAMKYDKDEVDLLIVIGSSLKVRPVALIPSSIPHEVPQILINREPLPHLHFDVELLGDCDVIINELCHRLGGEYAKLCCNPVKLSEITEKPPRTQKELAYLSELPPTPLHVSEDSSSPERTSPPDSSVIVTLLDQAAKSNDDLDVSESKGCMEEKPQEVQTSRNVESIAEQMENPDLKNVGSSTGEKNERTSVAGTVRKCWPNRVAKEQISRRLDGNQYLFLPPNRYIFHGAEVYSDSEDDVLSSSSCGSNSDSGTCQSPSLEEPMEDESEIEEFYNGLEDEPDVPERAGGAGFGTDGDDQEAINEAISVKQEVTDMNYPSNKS

Variant | effect of a mutation on the interaction
MDSDDEMVEEAVEGHLDDDGLPHGFCTVTYSSTDRFEGNFVHGEKNGRGKFFFFDGSTLEGYYVDDALQGQGVYTYEDGGVLQGTYVDGELNGPAQEYDTDGRLIFKGQYKDNIRHGVCWIYYPDGGSLVGEVNEDGEMTGEKIAYVYPDERTALYGKFIDGEMIEGKLATLMSTEEGRPHFELMPGNSVYHFDKSTSSCISTNALLPDPYESERVYVAESLISSAGEGLFSKVAVGPNTVMSFYNGVRITHQEVDSRDWALNGNTLSLDEETVIDVPEPYNHVSKYCASLGHKANASFTPNCIYDMFVHPRFGPIKCIRTLRAVEADEELTVAYGYDHSPPGKSGPEAPEWYQVELKAFQATQQK [H297A] | decreasing interaction strength
